From paper PMC6915088, “Biosynthesis of the Stress-Protectant and Chemical Chaperon Ectoine: Biochemistry of the Transaminase EctB” (Frontiers in Microbiology, 2019)

Columns and labels:
(Pl)EctB = target: T1, (Pl)EctB (Paenibacillus lautus, UniProt A0A385TGF8); assay: activation of apo-enzyme by added PLP, L-glutamate formation by HPLC; assay type: biochemical; conditions: 10 mM DAB, 15 mM 2-oxoglutarate, 100 mM Tris-HCl pH 7.0, 100 mM NaCl, 45 °C, 1 min; titration curve only, no constant; Schiff base at Lys274 inferred
T1 construct: full length; N-terminal Strep-tag II (WSHPQFEK) with linker SGMIEGR (factor Xa site), plasmid pAR8; no tag removal described; E. coli BL21; homotetramer; purified as apo-protein, PLP added

[1] = target: the molecule itself; assay: SEC-MALS; S200 300/10 GL analytical column with MALS and RI detectors, 4°C; 100 μL sample at 100 μM protein; 20 mM HEPES pH 7.5, 200 mM NaCl, 20 mM MgCl2, 20 mM KCl

Row | Molecule | activation of apo-enzyme by added PLP, L-glutamate formation by HPLC ((Pl)EctB) | stoichiometry N [1]
1 | Cc1ncc(COP(=O)(O)O)c(C=O)c1O [PLP] | the specific activity of (Pl)EctB strictly relies on the addition of PLP | –
2 | (Pl)EctB, L-2,4-diaminobutyrate transaminase EctB from Paenibacillus lautus (enzyme, Paenibacillus lautus strain Y412MC10, UniProt A0A385TGF8 1-430, looked up, EctB (L-2,4-diaminobutyrate transaminase) of Paenibacillus lautus strain Y412MC10; codon-optimized synthetic ectB gene; calculated mass 49.1 kDa including the Strep-tag II peptide and linker; The protein was purified as an apo-protein without PLP; also called (Pl)EctB wild-type protein; P. lautus EctB; not shown: Strep-tag II, N-terminal, kept) MDNQVMEKPKLTVFNKLESEVRSYCRSFQTVFDKARNAKLWDTQGNEYIDFFAGAGALNYGHNNERIREKLVDYILQDGVTHSLDMATGAKETFLTRFQEIILKPRGWDHKVMFPGPTGTNAVEAALKIARKVTGRSTVLCFTNAFHGMSLGSLAVTGNAFKRQGAGVDLSHSVFMPYDGYFGSDVDTMAYMEKLLDDPGSGIPLPAAVIVEAVQGEGGLNAASRQWLQKLARICKDKGMLLILDDIQMGCGRTGSFFSFDDAGIEPDIVCLSKSIGGFGLPMAITLIKPEIDIWEPGEHNGTFRGNNLGFVAAAEALSYWKTEEFQLDIGIREHRIRQSLENVVREYPRLGGEIRGRGMIQGVAFDKPEHAGRLSEIAFEQGLIMETSGPHSEVAKLMPPLTIEMNTLAEGLGIFENSMKQLAAEERLS | – | 4
3 | (Pl)EctB Lys274/His variant (enzyme, Paenibacillus lautus strain Y412MC10, UniProt A0A385TGF8 1-430, looked up, EctB (L-2,4-diaminobutyrate transaminase) of Paenibacillus lautus strain Y412MC10; codon-optimized synthetic ectB gene with Lys274 changed to His (AAA/CAT) by site-directed mutagenesis of pAR8; not shown: Strep-tag II, N-terminal, kept) MDNQVMEKPKLTVFNKLESEVRSYCRSFQTVFDKARNAKLWDTQGNEYIDFFAGAGALNYGHNNERIREKLVDYILQDGVTHSLDMATGAKETFLTRFQEIILKPRGWDHKVMFPGPTGTNAVEAALKIARKVTGRSTVLCFTNAFHGMSLGSLAVTGNAFKRQGAGVDLSHSVFMPYDGYFGSDVDTMAYMEKLLDDPGSGIPLPAAVIVEAVQGEGGLNAASRQWLQKLARICKDKGMLLILDDIQMGCGRTGSFFSFDDAGIEPDIVCLSHSIGGFGLPMAITLIKPEIDIWEPGEHNGTFRGNNLGFVAAAEALSYWKTEEFQLDIGIREHRIRQSLENVVREYPRLGGEIRGRGMIQGVAFDKPEHAGRLSEIAFEQGLIMETSGPHSEVAKLMPPLTIEMNTLAEGLGIFENSMKQLAAEERLS | – | 4
